Data reported in CN114702585A (SHENZHEN BINDEBIO TECH CO LTD, dated 2022).

Molecular target: T1, CD22蛋白 (购自义翘神州) (UniProt P20273 20-687)
T1 construct: Bought recombinant protein; also called CD22蛋白抗原
T1 sequence (looked up): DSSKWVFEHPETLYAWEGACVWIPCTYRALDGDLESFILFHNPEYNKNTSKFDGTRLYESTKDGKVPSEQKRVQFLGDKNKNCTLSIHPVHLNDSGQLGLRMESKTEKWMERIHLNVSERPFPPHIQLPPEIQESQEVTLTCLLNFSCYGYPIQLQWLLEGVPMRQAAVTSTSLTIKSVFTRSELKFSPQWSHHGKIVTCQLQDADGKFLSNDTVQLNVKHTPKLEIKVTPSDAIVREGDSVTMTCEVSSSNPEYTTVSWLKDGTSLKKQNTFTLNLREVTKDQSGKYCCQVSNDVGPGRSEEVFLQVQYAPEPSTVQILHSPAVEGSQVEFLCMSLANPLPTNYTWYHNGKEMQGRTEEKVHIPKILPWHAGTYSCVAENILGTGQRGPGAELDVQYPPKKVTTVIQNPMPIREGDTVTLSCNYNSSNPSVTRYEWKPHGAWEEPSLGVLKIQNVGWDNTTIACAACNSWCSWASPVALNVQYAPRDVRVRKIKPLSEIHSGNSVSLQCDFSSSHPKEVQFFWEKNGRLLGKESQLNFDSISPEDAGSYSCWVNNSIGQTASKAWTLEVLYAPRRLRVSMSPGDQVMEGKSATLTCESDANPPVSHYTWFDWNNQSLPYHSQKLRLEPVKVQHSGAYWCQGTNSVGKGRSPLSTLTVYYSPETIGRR
Assay: BLI (OCTET K2), CD22 protein loaded on AHC sensor, 4F6 in solution 500-5.21 nM

B1: 抗CD22的单克隆抗体4F6 (antibody, V domains shown)
VH: EVLLQQSGPELVKPGASVKIPCKASGYTFTDYNMDWVKQSHGKSLEWIGDIDPNNGITIYNQKFKGKATLTIDKSSSTAYMELRSLTSEDTAVYYCARDRYDRGYALDYWGQGTSVTVSS
VL: DIVMTQSPSSLAMSVGQKVTMSCKSSQSLLNSSNQKNYLAWHQQKTGQSPKLLVYFASIRDSGVPDRFIGSGSGTDFTLTINSVQAEDLADYFCQQHYSTPFTFGSGTKLEIK
notes: also called 4F6抗体; CD22单克隆抗体
With B1 the Kd was 3.14 nM.
